B1: Zinc finger homeobox protein 3, residues 2147 to 2202; numbered along this chain, Q15911 (parent)
chain: RPRTRITDDQLRVLRQYFDINNSPSEEQIKEMADKSGLPQKVIKHWFRNTLFKERQ
B2: DNA topoisomerase 3-alpha, residues 812 to 851; numbered along this chain, Q13472 (parent)
chain: TCNCGQEAVLLTVRKEGPNRGRQFFKCNGGSCNFFLWADS

± gives the uncertainty stated by the source.

The variants in the first series derive from B1. Put plainly: abundance fitness (aPCA) (normalised: wild type 0, dead -1); higher = more abundant; growth selection in yeast, the domain comes from the species named. The following applies: Homo sapiens.
Take RPRTRITDDQLRVLRQYFDINNSPSEEQIKEMADKSGLPQKVIKHWFRNTLFKETQ [R55T]: the abundance fitness was -0.206 ± 0.12.

On to RPRTRITDDQLRVLRQYFDINNSPSEEQIKEMADKSGLPQKVIKHWFRNTLFKENQ [R55N], for which the abundance fitness was -0.356 ± 0.2.

With RPRTRITDDQLRVLRQYFDINNSPSEEQIKEMADKSGLPQKVIKHWFRNTLFKELQ [R55L], the abundance fitness was -0.179 ± 0.084.

Take RPRTRITDDQLRVLRQYFDINNSPSEEQIKEMADKSGLPQKVIKHWFRNTLFKEMQ [R55M]: the abundance fitness is -0.101 ± 0.12.

As to RPRTRITDDQLRVLRQYFDINNSPSEEQIKEMADKSGLPQKVIKHWFRNTLFKEKQ [R55K], the abundance fitness was -0.175 ± 0.16.

For the variant RPRTRITDDQLRVLRQYFDINNSPSEEQIKEMADKSGLPQKVIKHWFRNTLFKEPQ [R55P], the abundance fitness was -0.343 ± 0.13.

Consider RPRTRITDDQLRVLRQYFDINNSPSEEQIKEMADKSGLPQKVIKHWFRNTLFKEWQ [R55W], for which the abundance fitness is -0.396 ± 0.099.

In the case of RPRTRITDDQLRVLRQYFDINNSPSEEQIKEMADKSGLPQKVIKHWFRNTLFKEQQ [R55Q], the abundance fitness is -0.054 ± 0.12.

Take RPRTRITDDQLRVLRQYFDINNSPSEEQIKEMADKSGLPQKVIKHWFRNTLFKEYQ [R55Y]: the abundance fitness is -0.195 ± 0.27.

RPRTRITDDQLRVLRQYFDINNSPSEEQIKEMADKSGLPQKVIKHWFRNTLFKERH [Q56H]: the abundance fitness was -0.5 ± 0.43.

Turning to RPRTRITDDQLRVLRQYFDINNSPSEEQIKEMADKSGLPQKVIKHWFRNTLFKERR [Q56R], the abundance fitness amounted to 0.166 ± 0.17.

Regarding RPRTRITDDQLRVLRQYFDINNSPSEEQIKEMADKSGLPQKVIKHWFRNTLFKERT [Q56T], the abundance fitness is -0.298 ± 0.23.

Turning to RPRTRITDDQLRVLRQYFDINNSPSEEQIKEMADKSGLPQKVIKHWFRNTLFKERA [Q56A], the abundance fitness is 0.09 ± 0.31.

RPRTRITDDQLRVLRQYFDINNSPSEEQIKEMADKSGLPQKVIKHWFRNTLFKERS [Q56S]: the abundance fitness is -0.57 ± 0.28.

Consider RPRTRITDDQLRVLRQYFDINNSPSEEQIKEMADKSGLPQKVIKHWFRNTLFKERP [Q56P], for which the abundance fitness was -0.261 ± 0.44.

Consider RPRTRITDDQLRVLRQYFDINNSPSEEQIKEMADKSGLPQKVIKHWFRNTLFKERD [Q56D], for which the abundance fitness was -0.844 ± 0.38.

Consider RPRTRITDDQLRVLRQYFDINNSPSEEQIKEMADKSGLPQKVIKHWFRNTLFKERG [Q56G], for which the abundance fitness is -0.419 ± 0.33.

A further series covers variants of B2. The description is as above. The following applies: Homo sapiens.
On to TCNCGQEAVLLTVRKEGPNRARQFFKCNGGSCNFFLWADS [G21A], for which the abundance fitness is -0.367 ± 0.083.

TCNCGQEAVLLTVRKEGPARGRQFFKCNGGSCNFFLWADS [N19A]: the abundance fitness was -0.509 ± 0.097.

As to TCNCGQEAVLLTVRKEGPGRGRQFFKCNGGSCNFFLWADS [N19G], the abundance fitness is -0.537 ± 0.14.

Consider TCNCGQEAVLLTVRKEGPNRGRQFFKCNGGSGNFFLWADS [C32G], for which the abundance fitness is -1.07 ± 0.25.

Turning to TCNCGQEAVLLTVRKEGPNRGRQFFKCNGGSVNFFLWADS [C32V], the abundance fitness was -0.977 ± 0.25.

For TCNCGQEAVLLTVRKEGPNRGRQFFKCNGGSPNFFLWADS [C32P], the abundance fitness is -1.36 ± 0.4.

Consider TCNCGQEAVLLTVLKEGPNRGRQFFKCNGGSCNFFLWADS [R14L], for which the abundance fitness is -0.099 ± 0.068.

TCNCGQEAVLLTVYKEGPNRGRQFFKCNGGSCNFFLWADS [R14Y]: the abundance fitness is -0.052 ± 0.11.

For TCNCGQEAVLLTVVKEGPNRGRQFFKCNGGSCNFFLWADS [R14V], the abundance fitness is -0.037 ± 0.048.

As to TCNCGQEAVLLTVTKEGPNRGRQFFKCNGGSCNFFLWADS [R14T], the abundance fitness was -0.052 ± 0.17.

TCNCGQEAVLLTVGKEGPNRGRQFFKCNGGSCNFFLWADS [R14G]: the abundance fitness is -0.092 ± 0.043.

Consider TCNCGQEAVLLTVCKEGPNRGRQFFKCNGGSCNFFLWADS [R14C], for which the abundance fitness is -0.15 ± 0.09.

For the variant TCNCGQEAVLLTVKKEGPNRGRQFFKCNGGSCNFFLWADS [R14K], the abundance fitness came out at 0.089 ± 0.11.

Take TCNCGQEAVLLTVSKEGPNRGRQFFKCNGGSCNFFLWADS [R14S]: the abundance fitness is -0.094 ± 0.084.

With TCNCGQEAVLLTVNKEGPNRGRQFFKCNGGSCNFFLWADS [R14N], the abundance fitness is -0.166 ± 0.34.

Turning to TCNCRQEAVLLTVRKEGPNRGRQFFKCNGGSCNFFLWADS [G5R], the abundance fitness is -0.467 ± 0.11.

For WCNCGQEAVLLTVRKEGPNRGRQFFKCNGGSCNFFLWADS [T1W], the abundance fitness was -0.858 ± 0.47.

Take QCNCGQEAVLLTVRKEGPNRGRQFFKCNGGSCNFFLWADS [T1Q]: the abundance fitness is -0.24 ± 0.19.

Consider TCNCGQEAVKLTVRKEGPNRGRQFFKCNGGSCNFFLWADS [L10K], for which the abundance fitness was -0.065 ± 0.12.

In the case of TCNCGQEAVVLTVRKEGPNRGRQFFKCNGGSCNFFLWADS [L10V], the abundance fitness is -0.357 ± 0.17.

For TCNCGQEAVLLTVRKEGPNRGRQFRKCNGGSCNFFLWADS [F25R], the abundance fitness is -0.412 ± 0.14.

In the case of TCNCGQEAVLLTVRKEGPNRGRQFKKCNGGSCNFFLWADS [F25K], the abundance fitness is -0.413 ± 0.14.

Consider TCNCGQEAVLLTVRKEGPNDGRQFFKCNGGSCNFFLWADS [R20D], for which the abundance fitness was determined as 0.22 ± 0.2.

Regarding TCNCGQEAVLLTVRKEGPNEGRQFFKCNGGSCNFFLWADS [R20E], the abundance fitness was -0.039 ± 0.076.

As for TCNCGQEAVLLTVRKEGPNRGRQFFKCNGGSCNKFLWADS [F34K], the abundance fitness is -0.576 ± 0.15.

For the variant TCNCGQEAVLLTVRKEAPNRGRQFFKCNGGSCNFFLWADS [G17A], the abundance fitness was -0.676 ± 0.17.

In the case of TCNCGQEAVLLTVRKERPNRGRQFFKCNGGSCNFFLWADS [G17R], the abundance fitness was -0.665 ± 0.14.

Consider TCNCGQEAVLLTVRKEPPNRGRQFFKCNGGSCNFFLWADS [G17P], for which the abundance fitness is -0.89 ± 0.46.

Take TCNCGQEAVLLTVRKEWPNRGRQFFKCNGGSCNFFLWADS [G17W]: the abundance fitness is -0.684 ± 0.26.

For TCNCGQEAVLLTVRKEIPNRGRQFFKCNGGSCNFFLWADS [G17I], the abundance fitness is -0.263 ± 0.16.

Consider TCNCGQEAVLLTVRKEQPNRGRQFFKCNGGSCNFFLWADS [G17Q], for which the abundance fitness was -0.681 ± 0.11.

Turning to TCNCGQEAVLLTVRKEGPNRGRQFFKCNRGSCNFFLWADS [G29R], the abundance fitness is -0.093 ± 0.059.

Take TCNCGQEDVLLTVRKEGPNRGRQFFKCNGGSCNFFLWADS [A8D]: the abundance fitness was -0.903 ± 0.37.

For the variant TCNCGQEMVLLTVRKEGPNRGRQFFKCNGGSCNFFLWADS [A8M], the abundance fitness was -0.172 ± 0.06.

In the case of TCNCGQEPVLLTVRKEGPNRGRQFFKCNGGSCNFFLWADS [A8P], the abundance fitness was determined as 0.309 ± 0.088.

On to TCNCGQEEVLLTVRKEGPNRGRQFFKCNGGSCNFFLWADS [A8E], for which the abundance fitness was -0.644 ± 0.11.

For TGNCGQEAVLLTVRKEGPNRGRQFFKCNGGSCNFFLWADS [C2G], the abundance fitness is -0.601 ± 0.36.

With TCNCGQEAVLLTVRKEGVNRGRQFFKCNGGSCNFFLWADS [P18V], the abundance fitness was -0.149 ± 0.067.

For the variant TCNCGQEAVLLTVRKEGRNRGRQFFKCNGGSCNFFLWADS [P18R], the abundance fitness is -0.252 ± 0.11.

For TCNCGQEAVLLTVRKEGMNRGRQFFKCNGGSCNFFLWADS [P18M], the abundance fitness was -0.336 ± 0.072.

For the variant TCNCGQEAVLLTVRKEGANRGRQFFKCNGGSCNFFLWADS [P18A], the abundance fitness is -0.058 ± 0.072.

Turning to TCNCGQEAVLLTVRKEGPNRGRHFFKCNGGSCNFFLWADS [Q23H], the abundance fitness is 0.03 ± 0.14.

With TCNCGQEAVLLTVRKEGPNRGRQFFKTNGGSCNFFLWADS [C27T], the abundance fitness is -0.86 ± 0.25.
